# In US20230382819A1, “PROCESSES FOR SYNTHESIS OF ALPHA-EMITTING RADIOPHARMACEUTICALS” (priority 2020, published 2023):
# What was measured:
# [1] = Maximum tolerated activity/toxicity in non-tumor bearing mice; assay type: in vivo
# Method: (§1) Radiochemical synthesis and characterization. Complexation was achieved by reacting DOTATATE (5-10 μg in 5-10 μL water from 1.0 mg/mL solution) with ^225Ac(NO3)3 (3.4 MBq) that was diluted in 100 μL of water containing 10 μL of 20% L-ascorbic acid. The pH was adjusted to 5.5-6 using 1 M Tris buffer (10-12 μL), and then incubated at 60° C. for 1 h (FIG. 1). […] Animal studies. An equal number of male and female subjects were assigned to each experimental cohort. All the animals were purchased from Charles River (Wilmington, MA). Injected Activity Measurement. […] Activities in syringes were measured using the Atomlab 500 Dose Calibrator (Biodex). Per the manufacturer's recommendations, measurements were made for 2 mins using dial number 38.2 and the assumption that ^225Ac and daughters were in secular equilibrium. Activity was injected into each mouse via tail-vein catheter (50 μL dead volume). […] The α activity in μCi of each radionuclide was determined by fitting each peak with a multi-Gaussian fit and integrating to determine the net number of counts while incorporating the acquisition time. The net administered activities were determined by subtraction of the residual activity in the catheter and syringe from the dose calibrator measured pre-injection activity. Spectra for activity calculations were acquired ≥24 h post-radiosynthesis ensuring that ^225Ac and daughters were in secular equilibrium (see Robertson, A. K. H.; et al. Phys Med Biol 2017, 62 (11), 4406-4420). Maximum tolerated activity/toxicity. […] Then, mice were weighed twice per week and monitored for 5 months for signs of distressed behavior, followed by euthanasia and tissue collection. Blood urea nitrogen (BUN), creatinine, alkaline phosphatase (ALKP), alanine aminotransferase (ALT) and aspartate aminotransferase (AST) content in serum were analyzed using commercial IDEXX CLIP (IDEXX, Main, USA) and read by an automated biochemical analyzer (IDEXX Catalyst DX, Main, USA) following the manufacturer's protocol. Bone, bone marrow, brain, cecum, duodenum, kidney, liver, lymph nodes, muscle, pancreas, salivary gland, small intestine, and spleen were harvested and fixed in 10% formalin. Bone was decalcified in 14% ethylene diaminetetraacetic acid (EDTA) solution after fixation in formalin. All tissues were embedded in paraffin, sectioned (4-6 μm thickness), stained with hematoxylin and eosin (H&E), and examined by the veterinary pathologist (R.E.), in a blind manner. Biodistribution (BD). BD studies for ^225Ac-DOTATATE were performed using groups of normal non-tumor bearing BALB/c mice. […] Groups of animals were euthanized at 24, 48 and 96 h p.i., n=4 mice per time point, and tissues were removed and weighed. […] Radiation dosimetry. Dosimetry calculations were performed as previously described. […] The β decay branching ratio for ^217At to ^217Rn is only 0.01% therefore it was assumed that all decays of ^217At were by […] to ^213Bi. The branching ratios for decay of ^213Bi by 98% to ^213Po and by 2% to ^209T1 were accounted for in the calculation. Due to the relatively low LET and the small dimensions of the target tissues, the β emissions from ^217At, ^213Bi, ^209T1 and ^209Pb were assumed negligible and not included in the calculations (see Bolch, W. E.; J Nucl Med 2009, 50 (3), 477-84).
# Anti-tumor efficacy. Efficacy studies were performed using NCI-H69 human SCLC and NCI-H727 lung carcinoid xenograft tumors in SCID mice. […] Animals were euthanized when the experimental endpoint of 2000 mm^3 tumor volume was reached. Any euthanasia performed prior to reaching 2000 mm^3 tumor volume were due to clinical endpoints, such as 20% weight loss, tumor ulceration, hunched back, scruffy fur (no longer grooming), lethargic or slow moving. Histology and immunohistochemistry (IHC). […]
# [2] = mouse, in vivo
# Method: Radiochemical synthesis and characterization. Complexation was achieved by reacting DOTATATE (5-10 μg in 5-10 μL water from 1.0 mg/mL solution) with ^225Ac(NO3)3 (3.4 MBq) that was diluted in 100 μL of water containing 10 μL of 20% L-ascorbic acid. The pH was adjusted to 5.5-6 using 1 M Tris buffer (10-12 μL), and then incubated at 60° C. for 1 h (FIG. 1). […] Animal studies. An equal number of male and female subjects were assigned to each experimental cohort. All the animals were purchased from Charles River (Wilmington, MA). Injected Activity Measurement. […] Activities in syringes were measured using the Atomlab 500 Dose Calibrator (Biodex). Per the manufacturer's recommendations, measurements were made for 2 mins using dial number 38.2 and the assumption that ^225Ac and daughters were in secular equilibrium. […] The α activity in μCi of each radionuclide was determined by fitting each peak with a multi-Gaussian fit and integrating to determine the net number of counts while incorporating the acquisition time. The net administered activities were determined by subtraction of the residual activity in the catheter and syringe from the dose calibrator measured pre-injection activity. […] Then, mice were weighed twice per week and monitored for 5 months for signs of distressed behavior, followed by euthanasia and tissue collection. […]
# [3] = Radiation dosimetry and clearance kinetics from BD data; assay type: in vivo; details: for Decay half-life, Teff: ^225Ac
# Method: as §1, with “(BD).” for “(BD). BD studies for ^225Ac-DOTATATE were performed using groups of normal non-tumor bearing BALB/c mice.”
# Dosimetry calculations were performed using the generalized internal dosimetry schema of the MIRD Committee for α-particle emitters. According to MIRD #21, the absorbed radiation dose due to particle type x, Dx(rT, TD) is the mean energy imparted to target tissue rT per unit tissue mass, defined by Equation 1: […]
# where A(rS, TD) is the total number of nuclear transitions in the […] (accumulated activity), Δi^x is the mean energy emitted per nuclear transition, φ(rT←rS; Ei^x) is the fraction of energy emitted per nuclear transition in the source region that is absorbed in the target region by the i^th emission that is emitted with initial energy E, k is a conversion factor, and M(rT) is the mass of the target tissue.
structure (smiles),measurement,setting,value
"C[C@@H](O)[C@H](NC(=O)[C@@H]1CSSC[C@H](NC(=O)[C@@H](Cc2ccccc2)NC(=O)CN2CCN(CC(=O)O)CCN(CC(=O)O)CCN(CC(=O)O)CC2)C(=O)N[C@@H](Cc2ccc(O)cc2)C(=O)N[C@H](Cc2c[nH]c3ccccc23)C(=O)N[C@@H](CCCCN)C(=O)N[C@@H]([C@@H](C)O)C(=O)N1)C(=O)O [^225Ac-DOTATATE, metal not drawn]",survival,[1]; all dose levels,all animals survived to 5-months p.i.
same,treatment related pathologic changes in other studied organs (not kidney),"[1]; bone, bone marrow, brain, cecum, duodenum, liver, lymph nodes, muscle, pancreas, salivary gland, small intestine, spleen",None and no treatment related damage
same,ALKP among the cohorts (ANOVA and Dunnett's test),"[1]; mouse, in vivo",no significant differences
same,ALT among the cohorts (ANOVA and Dunnett's test),"[1]; mouse, in vivo",no significant differences
same,AST among the cohorts (ANOVA and Dunnett's test),"[1]; mouse, in vivo",no significant differences
same,Liver enzymes,"[1]; mouse, in vivo",normal
same,acute kidney damage by pathology,"[1]; mouse, in vivo",no acute kidney damage
same,clearance of activity from the tissues,[2],largely cleared
same,clearance route,[2],"primarily cleared by the renal route, with some hepatic clearance"
same,"Decay half-life, Teff",[3]; Brain,67.296 h
same,"Decay half-life, Teff",[3]; Heart,1732.87 h
same,"Decay half-life, Teff",[3]; Lung,53.318 h
same,"Decay half-life, Teff",[3]; Muscle,141.46 h
same,"Decay half-life, Teff",[3]; Pancreas,115.52 h
same,"Decay half-life, Teff",[3]; Salivary,90.019 h
same,"Decay half-life, Teff",[3]; Skin,75.343 h
same,"Decay half-life, Teff",[3]; Spleen,111.8 h
same,calculated total absorbed dose,"[3]; mouse, in vivo",minimal
